Target: CD20 (human) (UniProt P11836)
Test: cell-based or functional assay

Sequence of UniProt P11836 (P11836 whole entry): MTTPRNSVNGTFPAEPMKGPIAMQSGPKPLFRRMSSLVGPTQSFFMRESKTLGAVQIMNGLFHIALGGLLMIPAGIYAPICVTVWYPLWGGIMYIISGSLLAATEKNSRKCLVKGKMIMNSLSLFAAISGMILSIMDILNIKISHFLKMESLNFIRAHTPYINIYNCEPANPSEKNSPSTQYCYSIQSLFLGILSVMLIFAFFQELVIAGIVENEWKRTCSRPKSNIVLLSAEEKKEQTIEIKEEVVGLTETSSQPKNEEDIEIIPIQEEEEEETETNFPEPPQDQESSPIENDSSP

Mean normalised apoptosis % (Ramos cells), with cross-linking mAb	Mean normalised apoptosis % (Ramos cells), without cross-linking mAb	Substance
359%	106%	mAb1 IgG1 mutant C220G (antibody)
322%	106%	mAb1 IgG1 mutant H224P (antibody)
332%	78%	mAb1 IgG1 mutant G137E-G138S (antibody)
278%	–	mAb1 IgG1 (equivalent to rituximab), unmodified IgG1 control (antibody)

From patent EP2966085A1
